# Experimental data taken from the DeepSol protein solubility set.
# Assay: soluble on expression in E. coli; label from the status in PepcDB or PDB records
row,Sequence,soluble on expression in E. coli
1,MTLVASSENTGLCPMTFDDSSGQTSHMLFQRLQYQRKTGRFCDVEIVVQNKSFAAHRNILAAHSPYFDAIFKYCKITKEQLTINSKSPQVFELFLNYMYSGTVIIDRSSVSELLRFANNFLIVKLKVYCAAYLDRYLDAANCLSIRTLAQRYNLPGLVKSATDYFDSNLNRCLLESRDIIGYTYTQLTRLIGDPKYVDCITSDTYLKLIVRWVGEEVSKREEIFRLLLESCEFREVSADTLEFLLDYSPLLSKSQKSRFLLLHVMETNNMLMEKYSTQLSSLRQKIVDLPILHDPSQFEDDIYDSSDSEEDPDDYIADGHPTSAQVVEYGNDVNNRLKMKIAFQPGNEKKRLKRPKGMKKHHLHPIPPINATENESIPWIDEDEIDGVYATCSLEGCHTYGPVDNLDPDDCEDEEDQPDENGPSTCIFCGLRTANEELLEKHKARHHNRNTYYMCHLCEFETNWSKQFYLHCAEHWTEIPYRCETCPFTSNEIQEFLTHRLQHTDERFFKCGECAWKGRTRSQLFAHERMHSVLDDRSLHCEECGRGFQQHSTLDHHVASHNDPRPYICEDCGFATKTADHLSLHRRQHTGDNFSCHIAGCDYSSTKKSQLAAHLRTHMAVRAHLCKICGRGFIEKSHLVRHERIHLEEKPFKCDQCEYASSRRDKLKEHIIKHHNSEVLTFQKTQRRKYKRQRMLAAASNIVNNPDALFRPITSDDAVSNWQATNDFSTYSPNPNDYGGPSTYGNPSSPQRAFSVVHPSQHQHHAQSPGCMSMMNVPLRDNHHQMQRQDSPGDSVGGGQGGGGGGGPEGSDNTHGVLMTPNLVMRSPHNRSAVQPQFNNLSTNSDPQQQQQQQQLRPFSLPTYGQMDLAQAAQLQQLQQQLQAAGLPPTGTPNNQDNSNNAWNPWNVQ,not soluble
2,MAKIGENVPLLIDKAVDFMASSQAFREYLNKTPPRDYVPSEVPSESAPIYLQRLEYYRRLYRPKEEERG,not soluble
3,MVGRKRRASMSITDGNGSLSDTVRPGDWVVVAELATPAFSVKNPESYQVASPLPLPLPSTLLGGLMRGASLLGSCTGGIASQSCIKKTGRIVKAAAPLSKPGQILGVEWEVVLRRLRKVLEPDSEEGSTRENRGNRVLDELSRISDALLRGYITPYNPVYAVFVARGRDNANRIEKALWYIDRLGDSESLVSARPVGRCQLAEFRSKSVNTPVALDSAVGGSFTVVYAPARAGRTGRTRRSEAIAIAMPVKKEAVERGYVLVYSEIEVEGSVYGCSVEGIDGRINVAVHESFHEVSGYGIWMPA,not soluble
4,MAFGRRTGKDGGKRKAGHAPVQPADEHVRPEDTVVASAAAASGVEDQEELQGPFDIDDFDDPSVAVLARLDLGSVLIPMPAAGQVQVELTESGVPSAVWVITPNGRYSIAAYAAPKTGGLWREVAGELADSLRKDSAKVSIKDGPWGREVIGIAAGVVRFIGVDGYRWMIRCVVNGPQETVDALTEEAREALADTVVRRGDTPLPVRTPLPVHLPEPMAAQLREAAAAQADTQRQAAAGVARRGAQGSAMQQLRSTTGG,soluble
5,MGSDKIHHHHHHLNTTLSEYSIENLYGLYNHSLKFNDGESIAILHGPNGVGKTALLRSITYLFNSDFSSLSKIPFSRLFAKLSDNTEIIVTRKGVTKEQLLKHSQELHKISIEIKSKDKTTTSFSLNEAQLRPELLPPWIVLSDDGSYIDERNGMLFPEEFLHQSLFGKNKQKEIRNRETATQILEKIKVHFVETNRLYRSNSDTTWKRKKEKEMVASVDECAKHLVVLISTALKDYGKKSQELDQSFPHRFISEPIAQMSLDKLKTRLNELASQLKKLRKIGLLDAEGIQPFDPESLDKVEKSKLEIMNLYVRDSEQKLAVFDNLSKRIQVLLDGLNSKFKNKNIQLNKERGLIARGPNDFDLSLSDLSSGEQHEIVLLYELLFKVAPNTLVLIDEPELSLHMTWQKSFLPELLSISREIGFSSILATHSPFIVGDRYDLLISLDTKNNNDSME,not soluble
6,MAKKKSVFTCQECGYQSPKYLGRCPNCSAWSSFVEEVEVQEVKNARVSLNGEKSRPTKLKDVSSINYSRTKTDMDEFNRVLGGGVVPGSLVLIGGDPGIGKSTLLLQVSTQLANKGTVLYVSGEESAEQIKLRSERLGDIDNEFYLYAETNMQSIRSEIEKIKPDFLIIDSIQTIMSPEVSSVQGSVSQVREVTAELMQLAKTNNIATFIVGHVTKEGTLAGPRMLEHMVDTVLYFEGERHHTFRILRAVKNRFGSTNEIGIFEMQSGGLVEVLNPSQVFLEERLDGATGSAIVVTMEGTRPILAEVQALVTPTVFGNAKRTTTGLDFNRVSLIMAVLEKRCGLLLQNQDAYLKSAGGVKLDEPAIDLAVAVAIASSYKEKPTNPQESFIGEIGLTGEIRRVTRIEQRINEASKLGFTKIYAPKNSLAGIEIPKGIDVIGVTTVSQVLKAVFST,not soluble
7,MGKIVLTYRMPHNWNINPFLKEYQRLLQRAIDEIWDNTSWKEKKVKHRYSLGNEEYRYYETIRLIPYFPQSNDFKRGLRNKLLREWPFAKHYVDSAIKTAYSILKSWRQNYLKGRRKRVKPVVKRKFVRVKTTLMKVEGSKIRITIKPREEYLELDFSREWFYERIKDWKVGELIIRERDILLTFSKEVEFSGRIKIGIDSNLTSLDVYHPEKGWIRVDLSELHRISETYDRIIDMLKSIQRKAPKRIGLLLEKYWTRRRNRIEDYLNKLAVQLSREFPDAIFIFEGLNKFKMLQNGSRKFNRKLSRATWKKIVGKLSYRVPIEFVNPAYTSSTCPICGSKLESRNGLVECFNCGFKADRQFVGAFNILMRGLGVALSGVERDDLPPNEPRGELNAMRPKSVVRVDLNGRRFTHIHSLEHHHHHH,soluble
8,MATSGTYVTEVPLKGSAKNHYKRWKSENQLFPDAIGHHIQGVTVHEGDWDSHGAIKSWNYTCDGKQEVFKEKRELDDQKMAVTFRGLDGHVMEQLKVYDVIFQFVPKSQEGCVCKVTMFWEKRYEDSPEPIKYMKFVTSLAADMDDHILKNQSKA,soluble
9,MGSDKIHHHHHHMDFTEYQEEIIEDVKSCLESLQVQPILFMGAGISQRYIKAPDWEGLLKQLAEICPLIKRHYGYYSQTKGDNKPLIASDFCDFYAEWAWDDGKDRYPETYFEGTTPKDIYIKHEIASILNELSNSVDFSNMEYTEEVQKLRKVKPHAIITTNYDDTLEKIFDNYQAIVGHNVVKVNYSSYGEIMKIHGSSHEVESIVITNEDYVDFYKRKKYISAKLLTYFAEHPLFFFGYSINDENIKAILSDIDEIIAPNNALIPNIYLVSFSKDCEATGSHQKELLIGVGENKSIRIKVIYANDFGWIFDALSSNTPEISVNPKLVRAFLARTYTFASESLVKQELPYDFEMFRDIAEHDDALAKMYGIAELNNGQALNASFPYTMSDLARILDMGSWHYVNQEFEKLRKLTDFNIKASDNNYHVFIKSGKSGVGKYSSEALDLLRKLINGEQFELNP,not soluble
10,GPGSMKPSFYAVAVGKARGIYSTWAQCSEQVTGYPGCIYKGFRTLDEARSFLAAHPLPSTGSAVSLGGGSSSSVAAPYPSSSEHAALGSNYFKGRLKRETREDLLAGEESVAERQARRRRADHAQIAVAPPELSSMSASLSAATPSTTASKPLATTTTTSSPGAFEVVYVDGACSHNGTSQARAGYGGYYGSMSDPRNFSCPVPLTESQTNNRGEVRAVIHAIVQAFVDAGAPADALEATHLVDPSAWRLVDLTRPLPHLIIYTDSRYVIDGLTRYAKKWVQNGFVLSTNEPVQNQDLWRQLIRLRDRYNTLYARQQHDQQRACQWGDGHHSEADLAQLVRYTCQNARNDKSEGVELIHVRGHSKVHGNEMADSLAVMGSRLHRS,soluble
11,MNVDARVGVAVDGAQSALNTATTVHSSVVMTQIKPQAKLGTFQNLLAGGIAGAISKTCTAPLARLTILFQLQGMQSEGAVLSRPNLRREASRIINEEGYRAFWKGNLVTVVHRIPYTAVNFYAYEKYNLFFNSNPVVQSFIGNTSGNPIVHFVSGGLAGITAATATYPLDLVRTRLAAQRNAIYYQGIEHTFRTICREEGILGLYKGLGATLLGVGPSLAINFAAYESMKLFWHSHRPNDSDLVVSLVSGGLAGAVSSTDDKLFDAHNYVATYPLDLVRRRMQVEGAGGRARVYNTGLFGTFKHIFKSEGFKGIYRGILPEYYKVVPGVGIVFMTYDALRRLLTSLPD,soluble
12,MSLGSTQLQLHGLLSNISSKEGTYAKLGGLYTQSLARLVAKCEDLFMGGQKKELHFNENNWSLFKLTCNKPCCDSGDAIYYCATCSEDPGSTYAVKICKAPEPKTVSYCSPSVPVHFNIQQDCGHFVASVPSSMLSSPDAPKDPVPALPTHPPAQEQDCVVVITREVPHQTASDFVRDSAASHQAEPEAYERRVCFLLLQLCNGLEHLKEHGIIHRDLCLENLLLVHCTLQAGPREKQLPRLIISNFLKAKQKPGGTPNLQQKKSQARLAPEIVSASQYRKFDEFQTGILIYELLHQPNPFEVRAQLRERDYRQEDLPPLPALSLYSPGLQQLAHLLLEADPIKRIRIGEAKRVLQCLLWGPRRELVQQPGTSEEALCGTLHNWIDMKRALMMMKFAEKAVDRREGHHHHHH,not soluble
13,MTFRPFWLDQALRSEHAAPCPPLAGDTRADVCIVGGGYTGLWTAIMLKEHDPGLDVVLVEADLCGAGASGRNGGCALSWSAKFFTLERLFGLTEAIRLVKASEDSIRAIGAFCQRYDVEADYRLDGTLYTATNPAQVGSTDSVIAALERHGINSFAKRPLADVQRLAGSRRHLEGWFSPAAATVQPGKLVRGLRRVALQLGVRLYEGTPMRGLEHGRPAEVVTPHGRVVAGRVVLALNAWMARAFPQFERSVAIVSSDMLITEPRPDLLQEIGLTSGVSVLDSRIFVHYYHNTPDGRLMLGKGGNTFAYGGRMLPVFDRPSPYLGQLRGSLREFFPEFAEVAIEASWNGPSDRSVTGLPFFGRLDGRDNVFYGFGYSGSGVGPCHMGGQILSSLALGLDNPWTRSPLTQGPLGRFPPEPIRYVGSLMVRNAIRRKEHAEDAGRRPRHLDVRLARFAAAAGKADKGLEHHHHHH,not soluble
14,MSRNHFNELSPCEALIMKLIWEAPQDIPVQELIDQLRDDYGKEYARTTVVTFVGKLKDKRFVDTYRKGKSAFIHPLRSEEEYRRQLLKEEADFWFNGKAVDMVASICESQKLEDDEIKRIKKILNGLNK,not soluble
15,MRYAIMVTGPAYGTQQASSALQFAHALLNEGHELASVFFYREGVYNANLLTSPASDEYDLVRVWQKLNTQHGVALNICVAAALRRGIIDETEAGRLELPSANLQPGFTLSGLGALAEASLTCDRVVQF,soluble
16,APARPAHPLDPLSTAEIKAATNTVKSYFAGKKISFNTVTLREPARKAYIQWKEQGGPLPPRLAYYVILEAGKPGVKEGLVDLASLSVIETRALETVQPILTVEDLCSTEEVIRNDPAVIEQCVLSGIPANEMHKVYCDPWTIGYDERWGTGKRLQQALVYYRSDEDDSQYSHPLDFCPIVDTEEKKVIFIDIPNRRRKVSKHKHANFYPKHMIEKVGAMRPEAPPINVTQPEGVSFKMTGNVMEWSNFKFHIGFNYREGIVLSDVSYNDHGNVRPIFHRISLSEMIVPYGSPEFPHQRKHALDIGEYGAGYMTNPLSLGCDCKGVIHYLDAHFSDRAGDPITVKNAVCIHEEDDGLLFKHSDFRDNFATSLVTRATKLVVSQIFTAANYEYCLYWVFMQDGAIRLDIRLTGILNTYILGDDEEAGPWGTRVYPNVNAHNHQHLFSLRIDPRIDGDGNSAAACDAKSSPYPLGSPENMYGNAFYSEKTTFKTVKDSLTNYESATGRSWDIFNPNKVNPYSGKPPSYKLVSTQCPPLLAKEGSLVAKRAPWASHSVNVVPYKDNRLYPSGDHVPQWSGDGVRGMREWIGDGSENIDNTDILFFHTFGITHFPAPEDFPLMPAEPITLMLRPRHFFTENPGLDIQPSYAMTTSEAKRAV,soluble
17,MSDQIIARVSQSLAKEQSLESLVRQLLEMLEMVTDMESTYLTKVDVEARLQHIMFARNSQKMYIPENFTVSWDYSLCKRAIDENCFFSDEVPDRWGDCIAARNLGITTFLSTPIHLPDGSFYGTLCAASSEKRQWSERAEQVLQLFAGLIAQYIQKEALVEQLREANAALIAQSYTDSLTGLPNRRAIFENLTTLFSLARHLNHKIMIAFIDLDNFKLINDRFGHNSGDLFLIQVGERLNTLQQNGEVIGRLGGDEFLVVSLNNENADISSLRERIQQQIRGEYHLGDVDLYYPGASLGIVEVDPETTDADSALHAADIAMYQEKKHKQKTPFVAHPALHS,soluble
